Drawing on US20080300209, “GENE EXPRESSION AND PAIN” (ADYNXX, INC., published 2008), this text covers IC50 for three molecules.

Series [1] addresses T1, EGR1 (endogenous, HL60 cells) (Homo sapiens, UniProt P18146 P18146:1-543). In words: cell_activity; inhibition of CDK5R1 mRNA in HL60 cells 48 h after vitamin D3; figure legend states 136 nM.
Series [2] has as its target T2, EGR1 (Homo sapiens, UniProt P18146 P18146:1-543). In words: competition; ELISA vs 128 nM biotinylated SEQ 40 probe, 10 ug nuclear extract. The note with it: protein: extract; tags: endogenous in nuclear extract of TPA-stimulated K-562 cells (Activemotif). The protocol: (§1) FIG. 2. A. Relative affinity. Quantitative competition ELISA involving hEGR1 were performed using a constant concentration of biotinylated SEQ ID NO.: 40 (128 nM) as the probe and 10 μg of protein extract. The probe-protein mix was incubated with increasing concentrations of SEQ ID NO.: 40, SEQ ID NO.: 41 or SEQ ID NO.: 42 competitors. The inhibition of hEGR1 binding by the probe was measured for each competitor at various concentrations and the resulting inhibition curves were fitted to an exponential decay model. […] Mean±SEM are given as a percentage of the maximum hEGR1 binding obtained with the probe in absence of competitor; n=2-4. B. Relative specificity. The relative binding of EGR1 oligonucleotide decoy sequences to hSP1 and hWT1 transcription factors was measured using quantitative ELISA. Top graph: representative OD binding values of SEQ ID NO.: 40 (128 nM) to either hSP1 or hWT1 transcription factors, as compared to hEGR1 binding, was detected with transcription factor-specific antibodies in either the presence or absence of SEQ ID NO.: 42 competitor (512 nM). For comparison, SEQ ID NO.: 11 binding to hSP1 is shown. […]
(§2) The affinity and specificity of decoy sequences for their transcription factor targets was measured with colorimetric transcription factor ELISA (Enzyme linked immuno adsorbent) kits (Panomics, Calif., USA). […]
In general terms: ELISA stands for enzyme-linked immunosorbent assay.

For series [3], the target named is T1, EGR1 (endogenous, HL60 cells). Kind of series: cell_activity; inhibition of CDK5R1 mRNA in HL60 cells 48 h after vitamin D3; figure legend states 502 nM.
Series [4] shares this target. In words: cell_activity; inhibition of CDK5R1 mRNA in HL60 cells 48 h after vitamin D3; figure legend states 443 nM.
For series [5], the target named is T2, EGR1. Kind of series: competition; ELISA; self-competition vs 128 nM biotinylated SEQ 40 probe, 10 ug nuclear extract. The note with it: protein: extract; tags: endogenous in nuclear extract of TPA-stimulated K-562 cells (Activemotif); label: biotin (probe). As to the method: as §1, §2

By IC50 is commonly meant the concentration needed to halve the response being measured. The low end stands for greater potency, the high end for weaker potency.

T2 sequence (P18146 whole entry, one chain of several): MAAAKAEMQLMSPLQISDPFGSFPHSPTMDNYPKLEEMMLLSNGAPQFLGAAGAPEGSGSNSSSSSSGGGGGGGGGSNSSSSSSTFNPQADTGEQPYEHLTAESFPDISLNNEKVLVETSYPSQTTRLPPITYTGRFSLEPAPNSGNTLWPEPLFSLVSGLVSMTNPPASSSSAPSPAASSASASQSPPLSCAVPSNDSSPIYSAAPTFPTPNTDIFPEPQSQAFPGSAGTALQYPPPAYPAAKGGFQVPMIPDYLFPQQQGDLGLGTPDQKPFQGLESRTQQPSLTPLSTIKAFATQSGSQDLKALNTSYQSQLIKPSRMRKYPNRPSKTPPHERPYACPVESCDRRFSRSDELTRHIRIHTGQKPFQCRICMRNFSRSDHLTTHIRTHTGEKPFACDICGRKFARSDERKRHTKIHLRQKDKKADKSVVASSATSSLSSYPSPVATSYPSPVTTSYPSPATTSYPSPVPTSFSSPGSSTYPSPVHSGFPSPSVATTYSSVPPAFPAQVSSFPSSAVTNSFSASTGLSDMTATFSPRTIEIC
T1 sequence (P18146 whole entry, one chain of several): as above

B1: SEQ ID NO 42 fused EGR1 sites decoy (dsDNA)
DNA 1: GTATGCGTGGGCGGTGGGCGTAG
DNA 2: CTACGCCCACCGCCCACGCATAC
Turning to B1, the IC50 in series [1] was 150 nM; in series [2] it was 99 nM.

B2: SEQ ID NO 41 EGR1 consensus decoy (dsDNA)
DNA 1: GATGCGTGGGCGTAGG
DNA 2: CCTACGCCCACGCATC
Consider B2, for which the IC50 was 250 nM in series [2] and 529 nM in series [3].

B3: SEQ ID NO 40 double EGR1 site decoy (dsDNA)
DNA 1: GTTATGCGTGGGCGTAGATGCGGGGGCGTTATAG
DNA 2: CTATAACGCCCCCGCATCTACGCCCACGCATAAC
As to B3, the IC50 worked out at 544 nM in series [4] and 215 nM in series [5].
